Values of other authors, collected in paper PMC4703387, “Identification of the Calmodulin-Binding Domains of Fas Death Receptor” (PLoS ONE, 2016).

Molecular target: T1, Ca^2+/CaM (Homo sapiens, UniProt P0DP23)
T1 construct: made in house
Details: ref [32]
From the text: We have also shown that both lobes of Ca^2+/CaM are important for FasDD binding. […] Our attempt to identify the interaction regions by ... || To identify the Ca^2+/CaM-binding regions in large proteins is not a simple task. To predict the Ca^2+/CaM-binding site, a web-based tool is often used to provide favorable scores based on multiple criteria including hydropathy, α-helical propensity, hydrophobic residue content, residue charge, residue weight, helical class and occurrence of particular residues.[39] However, this method can still provide biased results.

B1: FasDD: intracellular death domain of Fas (protein)
chain: SKYITTIAGVMTLSQVKGFVRKNGVNEAKIDEIKNDNVQDTAEQKVQLLRNWHQLHGKKEAYDTLIKDLKKANLCTLAEKIQTII
In the case of B1, the “stoichiometry of Ca^2+/CaM–FasDD complex” value is given as “two Ca^2+/CaM molecules binding simultaneously to FasDD”.
